Columns and labels:
[1] = target: Origin Recognition Complex (ORC); assay: pre-RC assembly on DNA beads, silver-stained gel band quantification; conditions: ATP, low salt wash; read off a plot
[2] = target: Origin Recognition Complex (ORC) (UniProt P54784); assay: pull-down; pre-RC assay as a2 but with 3 mM ATP, WT Cdc6, low salt wash

Row | Substance | response [1] | complex formation compared to WT [2]
1 | MCM2-7 (wild type) mutant Mcm5:E710R; Mcm5:E717R; Mcm5:E736R [S. cerevisiae] / Origin Recognition Complex (ORC) [not stated] chain 4 E710R, chain 4 E717R, chain 4 E736R | 0.5 | –
2 | MCM2-7 (wild type) mutant Mcm5:K757D; Mcm5:R764E; Mcm5:R772E [S. cerevisiae] / Origin Recognition Complex (ORC) [not stated] chain 4 K757D, chain 4 R764E, chain 4 R772E | 0.25 | –
3 | MCM2-7 (wild type) mutant Mcm5:R721E; Mcm5:R735E [S. cerevisiae] / Origin Recognition Complex (ORC) [not stated] chain 4 R721E, chain 4 R735E | 0.28 | –
4 | MCM2-7-ΔC2, P29469 1-847; P24279 1-971; P30665 1-933; P29496 1-775; P53091 1-1017; P38132 1-845 | – | 65%

Source: PMC11695723
